Experiment [1] has as its target cynomolgus monkey CD47 recombinant protein (cynomolgus monkey). The experiment is described as follows: ELISA. Background: In an ELISA, binding on a coated surface is turned into a signal by an enzyme label.
Experiment [2] addresses human CD47 recombinant protein (human) (UniProt Q08722). The experiment is described as follows: ELISA.

These results are taken from publication PMC11567960.

Chain of UniProt Q08722 (Q08722 19-323): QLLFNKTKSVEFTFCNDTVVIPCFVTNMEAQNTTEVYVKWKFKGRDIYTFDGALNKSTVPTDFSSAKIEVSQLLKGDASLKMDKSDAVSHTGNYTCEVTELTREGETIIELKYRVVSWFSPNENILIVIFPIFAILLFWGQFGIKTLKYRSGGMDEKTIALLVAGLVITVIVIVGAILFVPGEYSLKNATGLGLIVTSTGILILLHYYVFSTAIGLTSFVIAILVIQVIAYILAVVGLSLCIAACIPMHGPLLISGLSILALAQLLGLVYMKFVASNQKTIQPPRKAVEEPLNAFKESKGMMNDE

With HX009 (bispecific antibody), the EC50 in experiment [1] was found to be 1.02 nM; in experiment [2], 0.59 nM.

A word on the EC50: it is the midpoint of the concentration-response curve.
